Where no end group is shown, it is not given here.
Columns and labels:
[1] = target: T1, non-cleaved H3 tail peptide (H3 18-37), methylated at K27 (not fully specified; methylated K27 (degree of methylation shown only in FIG. 7C); biotinylated for the pull-down); experiment: fluorescence anisotropy
T1 peptide: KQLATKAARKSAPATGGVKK

[2] = target: T2, cleaved H3 tail peptide (H3 22-37), methylated at K27 (not fully specified; also: K27 methylated, degree not given here, biotinylated, site not given here); experiment: fluorescence anisotropy
T2 peptide: TKAARK(Me)SAPATGGVKK

B1: chromodomain of mouse CBX7 (other)
chain: MELSAIGEQVFAVESIRKKRVRKGKVEYLVKWKGWPPKYSTWEPEEHILDPRLVMAYEEKEERDRASGYR
[1]
  Kd: 14.5 µM
[2]
  Kd: 44 µM
